Measurements as given in the nanobody polyreactivity screen of Harvey et al. (2022).

Test: yeast display, Sf9 membrane polyspecificity reagent, FACS + sequencing; frameworks hold sequencing errors
In short: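 Galactose induction of a Saccharomyces cerevisiae BJ5465 synthetic nanobody display library ran 36–48 hours. The cells were then stained for 1 hour at 4 °C with 10% biotinylated, detergent-solubilized Sf9 membrane reagent, pulled down on streptavidin microbeads and FACS-sorted into low and high (top ~1%) gates on expression and reagent-binding fluorescence. Labels for polyreactivity follow the gate of origin.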

Row | Sequence | polyreactivity (PSR sort gate)
1 | QVQLVESGGGLVQAGGSLRLSCAASGSPFFVYAMGWYRQAPGTERELVAAISSRGSTYYADSVKGRFTIARDTAKNTVYLQMNSLKPEDTAVYYCAAEYTVSYLRMDYWGQGTQVTVSS | low polyreactivity
2 | QVQLVESGGGLVQAGGSLRLSCAASGRTFTYYAMGWYRQAPGKVRELVAAITFRGGRTYYADSVKGRFTFSRDNPKNTVYLQMNSLKPEDTAVYYCAAVPLWSYGGNYWGQGTQVTVSS | high polyreactivity
3 | QVQLVESGGGLVQAGGSLRISCAPSGRIFSYNAMGWYRPAPGKERELVAAINYSDDSTYYADSVKGRFTISRDNAKNTVYLQMNSLKPEDTAVYYCNADASSIVPSYDRPFDYWGQATQVTVSS | low polyreactivity
4 | QVQLVESGGGLVQAGGSHRLSCAASGLTFTDNAMGRYRQAPGKERELVAAMSRCGGTTYYAASVKGRFTISRDNAKNTVYLQMNSLKPEDTAVYYCNADTYRRLYGNYDYWGQGTQLTVSS | high polyreactivity
5 | QFQLVESGGGLVQAGGSLRLSCAASRYTFTLYAMGCYRQAPGKVRELVAAISWSSGSTYYADSVKGRFTISRDNEKNTVYLQMNSLKPEDTAVYYCNARRFGLTQYYYWGQGTQVTVSS | low polyreactivity
6 | QVQLVESGGGLVQAGGSLRLSCAASGSTLYWYAMGWYRQAPGKERELVAGISIGGRTNYADSVKGRFTISRDNAKNTVYLQMNSLKPEDTAVYYCNAENTYLGSRYRPYNYWGQGTQVTVSS | low polyreactivity
7 | QVQLVESGGGLVQAGGSLRLSCAASGITFQDYAMGWYRQAPGKERELVAAISKSGGSTYYADSVKGRFTISRDNAKNTVYLQINSLKPEDTAVYYCATRYLYSNRAYDYWGQGKQVTVSS | high polyreactivity
8 | QVQLVESGGGLVQAGGSLRLSCAASGLIFIVNAMGWYRQAPGKDRELVAAISSGGSTNYADSVKGRFTISRDNAKNTVYLQMNSLKPEDTAVYYCNAGRGPITQNVGSLAYRSDYWGQGTQVTVSS | low polyreactivity
9 | QVQLVESGGGLVQAGGSLRISCAASGSTFTTYSMGWYRQAPGKEREKVAAIRFSGGTTYYADSVKGRFTISRDNAKNTVYLQMNSLKPEDTAVYYCAAVYISRIFFGRARGDYWGQGTQVTVSS | low polyreactivity
10 | QVQLVESGGGLVQAGGSLRLSCAASGRIFTDYAMGWYRQAPGKERELVAAINFSGGSTYYADSVKGRFTISRDNAKNTVYLQMHSLKPEDTAVYYCAAQGYYDDMYYWGQGTQVTESS | high polyreactivity
11 | QVQLVESGGCLVQAGGSLRLSCAASGFTFRRYTMGWSRQAPGKDRELVAAISGRGGRTYYADSVKGRFTISRDNAKNTVYLQMNSLQPQDTAVYYSAADTPYWQSSKYDYWGQGTQVTVSS | high polyreactivity
12 | QVQLQESGGGLVQAGGSLRLSCAASGTIFWLWAMGWYCQAPGKERELVASISSGGTTYHADSVKGRFTISRDNAKNTVYLQMNSLKPEDTAVYYSAAFYVATSKLGFWGQGSQVTVSS | low polyreactivity
13 | QVQLVESGGGLVHAGGSLRLSCAASGGIFAGNVMGWDRQAPGKERYLVAAIDGDGRTYYADSVKGRFTISRDNAKNTVYLQMYSQKPEDTAVYYCAADAGVRGQYDDIDEGNYWGLGTQVTVSS | low polyreactivity
14 | QGHLVESGGGLVQAGGSLRLSCAASGRIIRWNAMGWYRQGPGKERELFAGISGSGGSTYYADSVKGRFTISRDNAKNSVYLQMNSLKPEDTAVYYCNADADSSTYVGILQRLDYWGQGTQVTVSS | low polyreactivity
15 | QVQLVESGGGLVQAGGSLRLSCAASGSIFEAYAMGWYRQAPGKERELVAAITTAGGSTYYADSVKGRFTISRDNAKNTVYLQMNSLKPEETAVYYCARDYGKYKGYYWGQGTQVTVSS | low polyreactivity
16 | QVQLVESGGGLVQAGGSLRFSCAASGSTFSYYDMGWYRQAPGKEREMVAAISWNGGTTFYADSVKGRFTISRDNAMNTVYLQMKSLKPEDTAVYYCAVTGFEVLWPSLGGELDYWGQGTQVTVSS | low polyreactivity
17 | QVQLVESGGGLVQAGGSLRLSCAPSGRTFVSNAMGWYRQAPGKERELVAGINWTDDSTYYADSVKGRFTISRDNAKNTVYLQMNSLKPEDTGVYFCGAYSWEFAWPRFDYWGQGTKVTVSS | low polyreactivity
18 | QVQLVESGGGLVQAGGSLRLSCAASGSIFRRNAMGWYRQAPGKARELVATITSSGGSTYYADSVKGRFTISRDNAKNTVYLQMNSLKPEDTAVYDCATDGQSPYYIYYWGQGTQVTVSS | low polyreactivity
19 | QVQLVESGGGLVQAGGSLRLSCAASGRIFYPYAMAWYRQAPGKERELVAAISGSGARKYYADSVKGRFTISRDNAKNTVYLQMNSLKPEDTAVYYCARYQSNSDVYWGQGTQVTVSS | high polyreactivity
20 | QVQLQESGGGLVQAGGSLRQSCAASGSNSPWSYMGRSRQAPGKEREFVASINAGTNTYYADSAKGRITISRDNATNTVYLQMNSLKPEDTAAYYCAARYWNDYYFPYWGQGTQVTVSS | low polyreactivity
21 | QVQLVESGGGLVQAGGSLRLSCAASGSTFPRYAMGWYRQAPGKERELVADISSGGSTYYADSVKGRFTISRDNAKNTVYLQMNSLKPEDTAVYYCNARRSRSRYDYWGQGTQVTVSS | high polyreactivity
22 | QVQLVESGGGLVQAGGSLRLSCAASGSTFDVNAMGWYRQAPGKERELVAVITSGGSTNYADSVKGRFTISRDNAKNTVYLQMNSLKPEDTAVYYCAKDSRTLYDYWGQGTQVTVSS | low polyreactivity

Row | Sequence | polyreactivity (PSR sort gate)
23 | QVQLVESGGGLVQAGGSLRLSCAASGYIFVGNAMGWYRQAPGKERELVATIRSSTGNTYADSVKGRFTISRDNAKNTVYLQMNSLKPEDTAVYYCATVYEWPGWGREYGYWGQGTQVTVSS | low polyreactivity
24 | QVQLVESGGGLVQAGGSLRLTCAASGSIFFYYTMGWYRQAPGKERELVAAISVGGSTYYADSVKGRFTISRDNAKNTVYLQMNSLKPEDTAVYYCNAVPAKGYVTVVRYYYWGQGTQVTVSS | low polyreactivity
25 | QVQLVESGGGLVQAGGSLRLICAASGLIFYRYAMGWYRPEPGKERELVAVISRGGSTFYADSVKGRFTISRDNAKNTVYLQMNSLTPEDTAVYFCAAAQTSQAYRYWYYYWGQGTQVTVSW | high polyreactivity
26 | QVQLVESGGGIVQAGGSLRLSCAASGSTFDRYAMGWYRQAPGKERALVAAISWSGGSTYYADSVKGRFTISRDNAKNTVFLQMNSLKPEDTAVYYCNTASYYRRFHKYDYWGQGTQVTVSS | high polyreactivity
27 | QVQHVESGGGLVQAGGSLRLSCAASGRTLYNYAMGWYRQAPGKEWELVAAISGSGGSTYYADSVKGRFTISRDNAKNTVYLQMNSLKPEDTEVYFCAKYRGIYPDVRGTYYWGQGTQVTVSS | high polyreactivity
28 | QVQLVESGGGLVQAGGSLRLSCAASGSIFRYNAMGWYRQAPGKERELVAVITSTGSTSYADSVKGRFTISRDNAKNTVYLQMNSLKPEDTAVYYCAATRERHYSYQYLVPYYYWGQGTQVTVSS | high polyreactivity
29 | QVQLVESGGGLVQAGGSLRLICAASGSIFDYYTRGWYRQAPGKERELVASITQSGGSTYYADSVKGRFTISRDNGKNTVYLQMNSLKPEDTAVYYCAADFSIVKMDYWGQGTQVTVSS | low polyreactivity
30 | QVQLVESGGGLVQAGGSLLLSCAASGSTFDWYVMGWYRPAPGKERELVAAINQGSGSTYYADSVKGRFTISRDNAKNTVYLQMNSLKPEDTAVYYCAADRYGAGYLYWPYDYWGQGTQVTVSS | low polyreactivity
31 | QVQLVESGGGLVQAGGSLRLSCAASGTTFCSYAMGRYRQAPGKEREFVAAISSSDDSTYYADSVKGRFTISRDYAKNTVYLQMNSLKPEDTAVYYCAAAQRVNHVWYDYWGQGTQVTVSS | low polyreactivity
32 | QVQLVESGGGLVQAGGSLRLSCADSGRTFFYYAMGWYRQAPGKERELVAAITTGGSTNYADSVKGRFTISRDNAKNTDYLQMKSLNPEDTEVYFCNADYDKGVRFNFTASFGEFDYWGQGTQVTVSS | low polyreactivity
33 | QVQLVESGGGLVQAGGSLRLTCAASVRTCYSYALGWYRQEPGKEMELVASISSGGGTNYADSVKGRFTISRYNAKNTVFLQMNSLKPEDTAVYYFAAYSSWGGFDYWGQGTQLTVSS | low polyreactivity
34 | QVQLVESGGCLVQAGGSLRLSCAASGRTFAYYAMGWYRQAPGKERELVAAITRGGSTYYADSVKGRFTISRDNAKNTVYLQMNSLKPEDTAVYYCAADTSPYQDDYWGQGTQVTVSS | low polyreactivity
35 | QVQLVESGGGLVQAGGSLRLSCAASGSIFYLYAMGWYRQAPGKERDVVAAITWRGGITNYADSVKGRFTISRYNAKNTVYLQMNSLKPEVTAVYYCAADPYRFLATELYYWGQGTQVTVSS | low polyreactivity
36 | QVQLVESGGGLVQAGGSLRLSCAASGRTFTRYPMGWYRQAPGKERELVAAITRGGSTYADSVKGRFTISRDNAKNTVYLQMNSLKPEDTAVYYCAAYWGFYPWRAYPYDYWGQGTQVTVSS | high polyreactivity
37 | QVQLVESGGGLLQAGGSLRLSCAASVNIFWRYRMGWYRQAPGKERELVAAIRRSGGTTYYADSVKGRFTISRDNAKNTVYFQMNSLKPEDTAVYNCAAGLTVRKFVRFDYWGHGTQVTVSS | low polyreactivity
38 | QVQLVESGGGLVQAGGSLRLSCAASGLIFLRNSMGLDRTAPGKERELVAAISRSGGSTYYADSVKGRFTISRDSAKYSGYLQMNSLKPVDTAVYYCAKYGYGGVIPGPDHFDYWVQGTQVTVSS | high polyreactivity
39 | QVQLVESGGGLVQAGGSLRLSCAASGRTFGYYAMVWYRQAPGKERELVAAISTSGGGTYYADSVKGRFTISRDNAKNTVYLQMNSLKPEDTAVYYCNRDSRVLEGDYWGQGTQVTVSS | low polyreactivity
40 | QVQLVESGGGLVQAGGSLRLICPASGITFVYYAMVWYRQSPGKEMELVATNTKSGVSTYYADSVKGRFTISRDNAKNTVYLQMNSLKPEDTAVYYCAKEVSYRFYWTYDYWGQGTKVTVSS | low polyreactivity
41 | QVQLVESGGGLVQAGGSLRLSCAASGFTFNYYAMGGYRQAPGKERELVAAIDSGTSTNYADSVKGRFTISRDNAKNTVYLQMNSLKPEDTAVYYCAADPGIFDGIFDYWGQGSQVTVSS | low polyreactivity
42 | QVQLVESGGGLVQAGGSLRLSCAASGIILKRNAMGWYRQAPGKERELVAAITSGGTTSYADSVKGRFTISRDNAKNTVYLQLNSLKPEDTAVYYCATRKPVSVYRFAPVYKNSNYWGQGTQVTVSS | high polyreactivity
43 | QVQLVDSGGGLFQAGGSLSLICAASASKYDINAMGRYRQAPGKETELVADISWSGGRTYYADSVKGRFTISRDNAKNTVYLKMNSLKPEETAVYYCNAQDSRFWYAEYDSWGQGTQVTVSS | low polyreactivity
